# In patent US20200147161A1 (University of Texas, published 2020):
# T1: VCY; VCY-37 peptide peptide on HLA-A*02:01 (human)
# T1 peptide: KVAEKGEAV
# T2: VCX/Y family (VCX1, VCX2, VCX3A, VCX3B, VCY); VCX54 peptide peptide on HLA-A*02:01 (human)
# T2 peptide: GAATKMAAV
# Experiments:
# [1] = molecular target: T1, VCY; VCY-37 peptide peptide on …; test: multimer staining
# [2] = molecular target: T2, VCX/Y family (VCX1, VCX2, VCX3A, VCX3B, …); test: multimer staining
# HLA-A2 on T2 cells [3] = molecular target: T3, HLA-A2 on T2 cells (human); test: HLA-A2 stabilisation on T2 cells, 18 hr, flow cytometry, fluorescence index
# T3 construct: The text of the assay says only 'HLA-A2'; also called HLA-A2 allele
# Protocol: The predicted peptides were synthesized and co-cultured with T2 cells with a series of diluted concentrations. DMSO without peptide or with the same concentration of negative binding to HLA-A2 peptide were used as control. After 18 hr incubation, the HLA-A2 expression was detected by flow cytometer. The fluorescence index (FI) was calculated as follows: FI=(mean fluorescence with the given peptide−mean fluorescence without peptide)/(mean fluorescence without peptide). […] The VCX54 epitope is found in all members of the VCX/Y family including VCX1, VCX2, VCX3A, VCX3B, or VCY which are expressed in various lung cancer cells (FIG. 1B).
# HLA-A2 on T2 cells [4] = molecular target: T3, HLA-A2 on T2 cells; test: HLA-A2 stabilisation on T2 cells, 18 hours, flow cytometry, FI index
# Protocol: The peptides were synthesized and pulsed with T2 cells with a series of diluted concentrations for 18 hours. After incubation, the HLA-A2 expression level of T2 was detected by flow cytometry and the FI index was calculated. The M27 peptide was used as a weak binding peptide control and the M26 peptide was used as a strong binding peptide control.
binder,measurement,setting,value
"VCY-37 CTL TCR (TCR, V domains shown) Valpha: AQKVTQAQTEISVVEKEDVTLDCVYETRDTTYYLFWYKQPPSGELVFLIRRNSFDEQNEISGRYSWNFQKSTSSFNFTITASQVVDSAVYFCALSLLSYNTDKLIFGTGTRLQVFP Vbeta: DTGVSQDPRHKITKRGQNVTFRCDPISEHNRLYWYRQTLGQGPEFLTYFQNEAQLEKSRLLSDRFSAERPKGSFSTLEIQRTEQGDSAMYLCASSTPGPSGANVLTFGAGSRLTVL",binding result,[1],recognises
"VCX54 CTL Clone-7 TCR (TCR, V domains shown) Valpha: AQKITQTQPGMFVQEKEAVTLDCTYDTSDPSYGLFWYKQPSSGEMIFLIYQGSYDQQNATEGRYSLNFQKARKSANLVISASQLGDSAMYFCAMITSGNTGKLIFGQGTTLQVKP Vbeta: AAGVIQSPRHLIKEKRETATLKCYPIPRHDTVYWYQQGPGQDPQFLISFYEKMQSDKGSIPDRFSAQQFSDYHSELNMSSLELGDSALYFCASSPPGGGRTEAFFGQGTRLTVV",binding result,[2],recognises
GAATKMAAV (Synthetic 9-mer shared by all VCX/Y family members; added to T2 cells in the HLA-A2 stabilisation assay; also called GAATKMAAV (54)) [VCX54 peptide (GAATKMAAV)],binding result,HLA-A2 on T2 cells [3],binds
KVAEKGEAV (Synthetic 9-mer from VCY) [VCY-37 peptide (KVAEKGEAV)],binding result,HLA-A2 on T2 cells [4],binds
KMAAVEAPEA (Synthetic 10-mer) [VCX-58 peptide (KMAAVEAPEA)],binding result,HLA-A2 on T2 cells [4],binds
